The text below walks through data of patent publication US20170355757A1 (Regeneron, published 2017).

Residue numbers refer to the chain shown, from its start. Names and notes keep the numbering of the source.

Test [1] concerns the target T1, human C5 R885C-mmh (human, UniProt P01031 19-1676).
T1 construct: also called human C5 variant R885C
Description: SPR, mAb captured via anti-hFc, 25C. As for the experimental part: (§1) Equilibrium dissociation constants (KD values) for C5 binding to purified anti-C5 antibodies were determined using a real-time surface plasmon resonance biosensor assay on a Biacore T200 instrument. The Biacore sensor surface was derivatized by amine coupling with a monoclonal mouse anti-human Fc antibody (GE Healthcare, # BR-1008-39) to capture anti-C5 antibodies expressed with human Fc constant regions. Biacore binding studies were conducted in HBST running buffer (0.01M HEPES pH 7.4, 0.15M NaCl, 3 mM EDTA, 0.05% v/v Surfactant P20).
(§2) Human C5 was obtained from a commercial source (EMD). Other C5 reagents were expressed with a C-terminal myc-myc-hexahistidine tag (subsequently referred to as C5-mmh). […] Association of all the C5 reagents to each of the captured monoclonal antibodies was monitored for 3 minutes and their dissociation in HBST running buffer was monitored for 8 minutes. All the binding kinetics experiments were performed at either 25° C. or 37° C. Kinetic association (kₐ) and dissociation (kd) rate constants were determined by fitting the real-time sensorgrams to a 1:1 binding model using Scrubber 2.0c curve fitting software. Binding dissociation equilibrium constants (KD) and dissociative half-lives (t %) were calculated from the kinetic rate constants as: KD (M)=kd/kₐ and t_{1/2} (min)=In2/(60×kd)
In general terms: Surface plasmon resonance follows binding to a sensor surface in real time, without labels.

In test [2] the target is T2, human C5 R885H-mmh (human, UniProt P01031 19-1676).
T2 construct: also called human C5 variant R885H
Description: SPR, mAb captured via anti-hFc, 25C. As for the experimental part:
as §1, §2

For test [3], the target named is T1, human C5 R885C-mmh. Description: SPR, mAb captured via anti-hFc, 37C. As for the experimental part: as §1, §2
Test [4] has as its target T2, human C5 R885H-mmh. Kind of test: SPR, mAb captured via anti-hFc, 37C. As for the experimental part: as §1, §2
Test [5] deals with T3, monkey C5-mmh (monkey, UniProt P01031 19-1676 (human entry), limits assumed).
T3 construct: Recombinant monkey C5 with a C-terminal myc-myc-hexahistidine tag
T3 chain: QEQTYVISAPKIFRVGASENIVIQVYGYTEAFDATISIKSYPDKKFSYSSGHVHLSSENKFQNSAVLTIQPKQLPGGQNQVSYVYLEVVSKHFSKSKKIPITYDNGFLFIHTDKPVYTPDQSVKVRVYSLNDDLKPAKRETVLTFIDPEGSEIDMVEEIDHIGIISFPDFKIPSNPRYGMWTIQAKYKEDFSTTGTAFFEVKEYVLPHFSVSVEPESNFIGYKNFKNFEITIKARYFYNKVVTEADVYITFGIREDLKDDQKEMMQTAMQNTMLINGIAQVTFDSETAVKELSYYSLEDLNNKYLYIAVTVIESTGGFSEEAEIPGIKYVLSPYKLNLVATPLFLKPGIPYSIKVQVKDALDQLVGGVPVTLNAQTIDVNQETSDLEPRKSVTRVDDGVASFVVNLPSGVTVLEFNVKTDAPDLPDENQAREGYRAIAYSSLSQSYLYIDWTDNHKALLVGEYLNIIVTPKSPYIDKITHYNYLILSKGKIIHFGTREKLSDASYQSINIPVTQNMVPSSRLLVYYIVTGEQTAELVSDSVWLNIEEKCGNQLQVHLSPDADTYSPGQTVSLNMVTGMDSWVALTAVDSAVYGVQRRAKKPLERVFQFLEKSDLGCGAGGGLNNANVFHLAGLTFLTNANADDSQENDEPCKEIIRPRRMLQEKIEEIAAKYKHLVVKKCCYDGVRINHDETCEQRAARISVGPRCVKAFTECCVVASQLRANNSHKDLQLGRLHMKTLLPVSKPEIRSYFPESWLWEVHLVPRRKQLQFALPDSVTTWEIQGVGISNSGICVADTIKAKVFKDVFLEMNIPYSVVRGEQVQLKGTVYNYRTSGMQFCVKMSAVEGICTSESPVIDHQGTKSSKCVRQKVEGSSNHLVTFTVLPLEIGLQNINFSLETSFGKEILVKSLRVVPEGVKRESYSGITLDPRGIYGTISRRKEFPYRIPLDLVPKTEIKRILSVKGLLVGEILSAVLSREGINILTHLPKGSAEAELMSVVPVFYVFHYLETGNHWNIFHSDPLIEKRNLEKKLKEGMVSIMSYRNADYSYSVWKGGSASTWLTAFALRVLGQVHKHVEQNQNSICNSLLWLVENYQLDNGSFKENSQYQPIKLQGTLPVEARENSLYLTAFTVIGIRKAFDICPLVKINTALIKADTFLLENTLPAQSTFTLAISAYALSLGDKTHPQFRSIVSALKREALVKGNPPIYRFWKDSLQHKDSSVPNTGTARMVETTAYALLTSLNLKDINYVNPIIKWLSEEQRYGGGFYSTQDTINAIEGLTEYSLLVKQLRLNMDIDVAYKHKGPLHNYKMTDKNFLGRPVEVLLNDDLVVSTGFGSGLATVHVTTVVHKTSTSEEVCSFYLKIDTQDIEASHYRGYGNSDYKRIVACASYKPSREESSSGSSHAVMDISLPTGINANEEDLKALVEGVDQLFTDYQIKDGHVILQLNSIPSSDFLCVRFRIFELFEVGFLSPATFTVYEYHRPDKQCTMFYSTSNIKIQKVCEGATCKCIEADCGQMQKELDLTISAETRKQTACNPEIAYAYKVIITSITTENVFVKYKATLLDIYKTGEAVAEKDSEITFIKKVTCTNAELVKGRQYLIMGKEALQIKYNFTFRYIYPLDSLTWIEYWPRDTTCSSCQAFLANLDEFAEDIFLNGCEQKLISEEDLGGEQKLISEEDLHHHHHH
Description: SPR, mAb captured via anti-hFc, 37C. As for the experimental part:
as §1, §2

Test [6] addresses African green monkey C5 (African green monkey). Kind of test: cell-based or functional assay.
Test [7] deals with Cynomolgus monkey C5 (cynomolgus monkey, UniProt A0A2K5U1T1 19-1676). Kind of test: cell-based or functional assay.
Test [8] has as its target T4, human C5 (human, UniProt P01031 19-1676).
T4 construct: Bought human C5 (EMD #204888, said elsewhere to be purified from plasma); also called hC5; complement component 5
Description: SPR, mAb captured via anti-hFc, dissociation at pH7.4 vs pH6.0, 25C. As for the experimental part: Effect of pH on the rate of dissociation of recombinant human C5 bound to purified anti-C5 monoclonal antibodies was determined using a real-time surface plasmon resonance biosensor using a Biacore T200 instrument. The Biacore sensor surface was first derivatized by amine coupling with a monoclonal mouse anti-human Fc antibody (GE, # BR-1008-39) to capture anti-C5 monoclonal antibodies expressed with human IgG4 Fc. All Biacore binding studies were performed using two running buffers PBS-T, pH7.4 (0.01M Na₂HPO₄/NaH₂PO₄, 0.15M NaCl, 0.05% v/v Tween-20, adjusted to pH7.4) and PBS-T, pH6.0 (0.01M Na₂HPO₄/NaH₂PO₄, 0.15M NaCl, 0.05% v/v Tween-20, adjusted to pH6.0). […] Binding dissociative half-lives (t %) were calculated from kd as: […]

For orientation: Kd means the equilibrium constant for the complex coming apart. In general, koff refers to the first-order rate constant of dissociation. What is called kon is the rate constant with which the complex forms.

B1: H4H12169P (antibody, human IgG4, V domains shown)
VH: EVQLVESGGGLAQPGGSLRLSCAASGFTFRSYAMSWVRQAPGKGPEWVSGIGGNGVTTYYADSVKGRFTISRDNSKNTLFLQMNSLRAEDTAVYYCVQGGLGGYFTGYWGQGTLVTVSS
VL: DIQMTQSPSSLSASVGDRVTITCRASQSISTYLNWYQQNPGKAPKLLIFDASSLQSGVPSRFSGSGSGTDFTLTIRGLQPEDFATYYCQQSYSAPLTFGGGTKVEIK
notes: Human IgG4 Fc with S108P hinge mutation (H4H)
Turning to B1, in test [1], the “100 nM Human C5 R885C-mmh Bound (RU)” value was 168 RU, the Kd turned out to be 0.251 nM, the koff was 6.99e-05 s⁻¹ and the kon was determined as 278000 M⁻¹ s⁻¹. The t1/2 in test [1] came to 165 min. Further, in test [2], the “100 nM Human C5 R885H-mmh Bound (RU)” value turned out to be 173 RU; the affinity, expressed as Kd, was 0.147 nM; the koff was 7.09e-05 s⁻¹; the kon amounted to 484000 M⁻¹ s⁻¹. The molecule also had a t1/2 in test [2] of 163 min. Moreover, in test [3], the “100 nM Human C5 R885C-mmh Bound (RU)” value was determined as 75 RU, the equilibrium dissociation constant (Kd) is 2.24 nM, the koff worked out at 0.000737 s⁻¹ and the kon turned out to be 329000 M⁻¹ s⁻¹. Moreover, in test [3], the t1/2 worked out at 16 min. Further, in test [4], the “100 nM Human C5 R885H-mmh Bound (RU)” value was determined as 79 RU, the equilibrium dissociation constant (Kd) stood at 1.72 nM, the koff stood at 0.000739 s⁻¹ and the kon turned out to be 429000 M⁻¹ s⁻¹. The t1/2 in test [4] was determined as 16 min. In addition, in test [5], the “100 nM monkey C5-mmh Bound (RU)” value was 64 RU, binding was characterised by a dissociation constant (Kd) of 14.3 nM, the off-rate constant (koff) was 0.00361 s⁻¹ and the on-rate constant (kon) is 251000 M⁻¹ s⁻¹. The molecule further yielded a t1/2 in test [5] of 3 min.

B2: H4H12166P (antibody, V domains shown)
VH: QVQLQESGPGLVKPSETLSLTCTVSGDSVSSSYWTWIRQPPGKGLEWIGYIYYSGSSNYNPSLKSRATISVDTSKNQFSLKLSSVTAADTAVYYCAREGNVDTTMIFDYWGQGTLVTVSS
VL: AIQMTQSPSSLSASVGDRVTITCRASQGIRNDLGWYQQKPGKAPKLLIYAASSLQSGVPSRFAGRGSGTDFTLTISSLQPEDFATYYCLQDFNYPWTFGQGTKVEIK
For B2, in test [6], the “AGM AP % Max Inhibition, hemolysis assay, 5% serum” value was 44.2%; the “AGM CP % Max Inhibition, hemolysis assay, 5% serum” value was found to be 81%; the “AGM Serum AP IC50, hemolysis assay, 5% serum” value amounted to 233 nM. In test [7], the “Cyno AP % Max Inhibition, hemolysis assay, 5% serum” value stood at 98.6%; the “Cyno CP % Max Inhibition, hemolysis assay, 5% serum” value is 94.2%; the “Cyno Serum AP IC50, hemolysis assay, 5% serum” value turned out to be 8.85 nM; the “Cyno Serum CP IC50, hemolysis assay, 5% serum” value was found to be 20.1 nM.

B3: H4H12166P6 (antibody, human IgG4, V domains shown)
VH: B2 VH with T103H
VL: B2 VL
notes: Histidine-mutated CDR variant of H4H12166P; human IgG4 Fc with S108P
For the molecule B3, the “t1/2 Ratio pH7.4/pH6.0” value in test [8] is 7.8. Also, in test [5], the “100 nM monkey C5-mmh Bound (RU)” value turned out to be 112 RU, binding was characterised by a dissociation constant (Kd) of 9.18 nM, the off-rate (koff) is 0.00232 s⁻¹ and the kon was 253000 M⁻¹ s⁻¹. For the same molecule, the t1/2 in test [5] turned out to be 5 min.

B4: H4H12166P5 (antibody, human IgG4, V domains shown)
VH: B2 VH with F107H
VL: B2 VL
notes: as for B3
Turning to B4, the “t1/2 Ratio pH7.4/pH6.0” value in test [8] stood at 8.3. Further, in test [5], the “100 nM monkey C5-mmh Bound (RU)” value amounted to 70 RU, the equilibrium dissociation constant (Kd) turned out to be 20.9 nM, the koff stood at 0.00313 s⁻¹ and the on-rate (kon) was 150000 M⁻¹ s⁻¹. In test [5], this molecule came in with a t1/2 of 4 min.

B5: H4H12166P4 (antibody, human IgG4, V domains shown)
VH: B2 VH
VL: B2 VL with T97H
notes: as for B3
On to B5, for which the “t1/2 Ratio pH7.4/pH6.0” value in test [8] stood at 7.8. In addition, in test [5], the “100 nM monkey C5-mmh Bound (RU)” value amounted to 80 RU, binding was characterised by a dissociation constant (Kd) of 8.2 nM, the off-rate (koff) was 0.00183 s⁻¹ and the kon was 223000 M⁻¹ s⁻¹. Further, the t1/2 in test [5] turned out to be 6 min.

B6: H4H12166P2 (antibody, human IgG4, V domains shown)
VH: B2 VH
VL: B2 VL with L89H
notes: as for B3
With B6, in test [8], the “t1/2 Ratio pH7.4/pH6.0” value amounted to 9.3. In test [5], the “100 nM monkey C5-mmh Bound (RU)” value worked out at 83 RU; the affinity, expressed as Kd, was 7.56 nM; the dissociation rate constant (koff) is 0.00297 s⁻¹; the kon came to 393000 M⁻¹ s⁻¹. The t1/2 in test [5] stood at 4 min.

B7: H4H12183P2 (antibody, human IgG4, V domains shown)
VH: QVQLQESGPALVKPSQTLSLTCTVSGGSIIRGSTYWSWVRQFPGKGLEWIGYSYYSGTAYYNPSLESRATISVDTSKNQFSLNLKSVTAADTAVYYCTREIGVAGLFDIWGQGTLVTVSS
VL: not shown
notes: as for B1
With B7, in test [1], the “100 nM Human C5 R885C-mmh Bound (RU)” value is 80 RU, binding was characterised by a dissociation constant (Kd) of 0.737 nM, the koff amounted to 2.2e-05 s⁻¹ and the kon was determined as 29900 M⁻¹ s⁻¹. In test [1], this molecule registered a t1/2 of 525 min. In addition, in test [2], the “100 nM Human C5 R885H-mmh Bound (RU)” value was 99 RU, the Kd is 1.16 nM, the koff is 4.37e-05 s⁻¹ and the kon is 37700 M⁻¹ s⁻¹. In addition, the t1/2 in test [2] stood at 264 min. Moreover, in test [3], the “100 nM Human C5 R885C-mmh Bound (RU)” value was found to be 25 RU, binding was put at a Kd of 19.5 nM, the koff amounted to 0.000997 s⁻¹ and the kon came out at 51200 M⁻¹ s⁻¹. For the same molecule, the t1/2 in test [3] is 12 min. For the same molecule, in test [4], the “100 nM Human C5 R885H-mmh Bound (RU)” value worked out at 36 RU, the Kd amounted to 7.43 nM, the off-rate constant (koff) was 0.000712 s⁻¹ and the kon was determined as 95800 M⁻¹ s⁻¹. The same molecule returned a t1/2 in test [4] of 16 min. Besides, in test [5], the “100 nM monkey C5-mmh Bound (RU)” value amounted to 13 RU, the Kd worked out at 118 nM, the koff was 0.00637 s⁻¹ and the kon was 54000 M⁻¹ s⁻¹. This molecule also returned a t1/2 in test [5] of 2 min.
